Source: publication PMC3994145

Tests used:
[1] = target: human FcγRIIIa/158V on Jurkat cells (human)
[2] = target: human FcγRIIa/131H on Jurkat cells (human) (UniProt P12318)
Chain of UniProt P12318 (P12318 34-317): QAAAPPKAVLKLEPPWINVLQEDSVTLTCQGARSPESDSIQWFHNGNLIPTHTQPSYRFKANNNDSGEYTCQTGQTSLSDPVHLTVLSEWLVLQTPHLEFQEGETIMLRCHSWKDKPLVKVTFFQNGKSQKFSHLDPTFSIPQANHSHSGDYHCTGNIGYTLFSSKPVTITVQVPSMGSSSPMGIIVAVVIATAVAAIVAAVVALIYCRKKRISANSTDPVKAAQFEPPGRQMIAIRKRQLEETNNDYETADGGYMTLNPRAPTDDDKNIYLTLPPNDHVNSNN

Chain of human FcγRIIIa/158V on Jurkat cells (human) (P08637 17-208): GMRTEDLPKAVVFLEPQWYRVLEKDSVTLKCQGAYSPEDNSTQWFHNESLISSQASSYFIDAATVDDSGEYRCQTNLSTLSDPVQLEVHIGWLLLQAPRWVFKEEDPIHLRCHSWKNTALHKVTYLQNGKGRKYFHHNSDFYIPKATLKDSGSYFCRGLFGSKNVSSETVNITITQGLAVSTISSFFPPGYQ

Q: For “rituximab (wild-type, anti-CD20 mAb, IgG1) (antibody)”, which EC50 of luciferase activity of Jurkat/FcγRIIIa/NFAT-Luc cells co-cultured with Daudi cells and serially diluted mAb [1] is on record?
A: 0.034 µg/mL

Q: Which EC50 of luciferase activity of Jurkat/FcγRIIIa/NFAT-Luc cells co-cultured with Daudi cells and serially diluted mAb [1] does the source give for “rituximab G236A/S239D/I332E variant (antibody)” here?
A: 0.016 µg/mL

Q: What about the EC50 of luciferase activity of Jurkat/FcγRIIa/NFAT-Luc cells co-cultured with Daudi cells and serially diluted mAb [2] of the same substance?
A: 0.057 µg/mL
